Data taken from patent US20230144459A1 (BIOND BIOLOGICS, published 2023).
Where no end group is shown, it is not given here.

T1: c-Myc conjugated and biotinylated human CD28 stalk region dimeric peptide (wild-type) (human, C-terminal biotin; dimer by a disulfide linkage at Cysteine 141 (CD28 numbering))
T1 construct: N-terminal tag, five glycines, then His134-Pro152 of human CD28; also called substrate peptide; wild-type CD28 stalk region dimeric peptide
T1 peptide: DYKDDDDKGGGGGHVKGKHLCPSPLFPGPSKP

T2: L145K CD28 stalk region dimeric peptide (human, C-terminal biotin; dimeric)
T2 construct: also called CD28 stalk region peptide with mutation at the cleavage site
T2 peptide: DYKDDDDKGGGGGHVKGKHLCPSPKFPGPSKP

T3: BSA conjugated CD28 stalk region dimeric peptide (human, also: dimer, conjugated to BSA via C-terminal Lys)
T3 construct: also called stalk region peptide
T3 peptide: GKHLCPSPLFPGPSKPK

B1: VHH clone 4A4 (VHH)
VHH: EVQLVESGGGLVQAGGSLRLSCAASGSLFSINAMAWYRQAPGKQRELVAAITSSGSTNYANSVKGRFTVSRDNAKNTMYLQMNSLKPEDTAVYYCVVDEYGSDYWIWGQGTQVTVSS
notes: VHH with AAA linker and C-terminal His6, made in CHO cells
B2: VHH clone 4A1 (VHH)
VHH: QVQLVESGGGLVQAGGSLRLSCAASGSIFSINAMGWYRQAPGKQRERVAAITSGGSTNYADSVKGRFTISRDNAKNTVYLQMNNLEPRDAGVYYCVVDLYGEDYWIWGQGTQVTVSS
notes: as for B1
B3: VHH clone 2A1 (VHH)
VHH: EVQLVESGGGLVQAGESLRLSCAASGSIASINAMGWYRQAPGSQRELVAAISGGGDTYYADSVKGRFTISRDNAKTTVYLQMNSLRPEDTAVYYCVVDLYGSDYWDWGQGTQVTVSSAAAHHHHHH
notes: VHH with AAA linker and C-terminal His6, made in CHO cells; also called VHH #2A1; 2A1-6H
B4: antibody M9 (antibody, V domains shown)
VH: DVKLVESGGGLVKLGGSLKLSCVASGFTFSSYYMSWVRQTPEKRLEWVATISDGGDNTYYAGTVTGRFTISRDFAKNTLYLQMNSLTSEDTAVYYCARIHWPYYFDSWGQGTTLTVSS
VL: QFVLSQSPAILSASPGEMLTMTCRASSSVSYMNWYQQKPGSSPKPWIYATSDLASGVPARFSGSGSGTSYSLTISRVEAEDAATYYCQQWSSHPPTFGGGTKLEIR
notes: Full-size mouse antibody from CD1 mice immunised with the dimeric stalk peptide, detected with anti mouse IgG; also called clone M9; anti-cleavage antibody M9

Legend:
[1] = target: T1, c-Myc conjugated and biotinylated human …; assay: direct ELISA, wild-type biotinylated dimeric stalk peptide on neutravidin plates
[2] = target: T2, L145K CD28 stalk region dimeric peptide; assay: direct ELISA on biotinylated dimeric peptide on neutravidin plates
membranal human CD28 [3] = target: T4, membranal human CD28 (human, UniProt P10747 19-220); assay: flow cytometry on HEK293 cells over expressing human CD28; percent reduction of median CD86-Fc (2 µg/mL) signal; competitor CD86-Fc
T4 construct: Full-length human CD28 on stably transfected HEK293 cells, or native CD28 on human CD4 T cells and PBMC in the shedding assays; Homodimer through Cys 141; also called mCD28; membrane CD28

membranal human CD28 [4] = target: T4, membranal human CD28; assay: cell-based or functional assay
[5] = target: T3, BSA conjugated CD28 stalk region …; assay: ELISA, BSA conjugated dimeric peptide on plate, serial dilution of M9

Binder	binding result [1]	binding result [2]	Blocking CD86 binding (%) (membranal human CD28 [3])	Inhibition (%) of CD28 shedding (membranal human CD28 [4]) [%]	binding result [5]
B1	binds	no binding (tested: 0.2-5 µg/mL)	–	–	–
B2	binds	no binding (tested: 0.2-5 µg/mL)	–	–	–
B3	binds	no binding (tested: 0.2-5 µg/mL)	8.2	58.9	–
B4	–	–	–	–	binds
